In paper PMC6555819, “Comprehensive study of nuclear receptor DNA binding provides a revised framework for understanding receptor specificity”:
Numbering of substitutions follows the chain as printed.

B1: NRC3_wobSeed58_DR2_A7T_o1 (dsDNA)
DNA 1: GCATCGTAAGGTCGTGAGGTGAGTATACAGAAAGGCGCGATTGACAGCGTAGAATGAAGG
DNA 2: CCTTCATTCTACGCTGTCAATCGCGCCTTTCTGTATACTCACCTCACGACCTTACGATGC
B2: NRC3_wobSeed38_DR1_A25C_o1 (dsDNA)
DNA 1: GCCCTGCTAGGTCAATGGTCAGCTCAAGCAGCTCGCGCGATTGACAGCGTAGAATGAAGG
DNA 2: CCTTCATTCTACGCTGTCAATCGCGCGAGCTGCTTGAGCTGACCATTGACCTAGCAGGGC
B3: NRC3_wobSeed75_DR3_A25C_o1 (dsDNA)
DNA 1: GCTCTCGGAGGACACGAAGGTCAGCGCTTTCCAGAGGCGATTGACAGCGTAGAATGAAGG
DNA 2: CCTTCATTCTACGCTGTCAATCGCCTCTGGAAAGCGCTGACCTTCGTGTCCTCCGAGAGC
B4: NRC3_wobSeed76_DR3_A16T_o1 (dsDNA)
DNA 1: GCCCTACTGGGCCAATAAGGTCATTGATGCCGATAAGCGATTGACAGCGTAGAATGAAGG
DNA 2: CCTTCATTCTACGCTGTCAATCGCTTATCGGCATCAATGACCTTATTGGCCCAGTAGGGC
B5: NRC3_wobSeed28_DR1_T19A_o1 (dsDNA)
DNA 1: GCCCTACTGGGCCAAAGGACATTGATTCCAATGCTCGCGATTGACAGCGTAGAATGAAGG
DNA 2: CCTTCATTCTACGCTGTCAATCGCGAGCATTGGAATCAATGTCCTTTGGCCCAGTAGGGC
B6: NRC3_wobSeed28_DR1_T19C_o1 (dsDNA)
DNA 1: B5 DNA 1 with A19C
DNA 2: B5 DNA 2 with T42G
B7: NRC3_wobSeed112_DR4_G5T_o1 (dsDNA)
DNA 1: GCTATCCTAGGTCAGATCGGGCCAGTATACGCTATAGCGATTGACAGCGTAGAATGAAGG
DNA 2: CCTTCATTCTACGCTGTCAATCGCTATAGCGTATACTGGCCCGATCTGACCTAGGATAGC
B8: NRC3_wobSeed10_DR0_A9T_o1 (dsDNA)
DNA 1: GCATCGAATGGTCGAGGTGAGTATAGAGAAAGGGAAGCGATTGACAGCGTAGAATGAAGG
DNA 2: CCTTCATTCTACGCTGTCAATCGCTTCCCTTTCTCTATACTCACCTCGACCATTCGATGC
B9: NRC3_wobSeed57_DR2_T19G_o1 (dsDNA)
DNA 1: GCATCTCTAGGTAACAAGGTCAGTGAAAGAGAGGACGCGATTGACAGCGTAGAATGAAGG
DNA 2: CCTTCATTCTACGCTGTCAATCGCGTCCTCTCTTTCACTGACCTTGTTACCTAGAGATGC
B10: NRC3_wobSeed3_DR0_A22G_o1 (dsDNA)
DNA 1: GCGCTCGGAGGACAAGGTCAGGGCTTTGTCCGTAGAGCGATTGACAGCGTAGAATGAAGG
DNA 2: CCTTCATTCTACGCTGTCAATCGCTCTACGGACAAAGCCCTGACCTTGTCCTCCGAGCGC
B11: NRC3_wobSeed72_DR2_A9G_o1 (dsDNA)
DNA 1: GCTCGAGTGGGTTACGGGGGCATTCAGGGATGAAGAGCGATTGACAGCGTAGAATGAAGG
DNA 2: CCTTCATTCTACGCTGTCAATCGCTCTTCATCCCTGAATGCCCCCGTAACCCACTCGAGC
B12: NRC3_wobSeed72_DR2_G17T_o1 (dsDNA)
DNA 1: B11 DNA 1 with G9A, G17T
DNA 2: B11 DNA 2 with C44A, C52T
B13: NRC3_wobSeed72_DR2_C15G_o1 (dsDNA)
DNA 1: B11 DNA 1 with G9A, C15G
DNA 2: B11 DNA 2 with G46C, C52T
B14: NRC3_wobSeed99_DR4_G20C_o1 (dsDNA)
DNA 1: GCTCTCGGAGGACACGAAACGTCAGAGCTCGACATCGCGATTGACAGCGTAGAATGAAGG
DNA 2: CCTTCATTCTACGCTGTCAATCGCGATGTCGAGCTCTGACGTTTCGTGTCCTCCGAGAGC
B15: NRC3_wobSeed110_DR4_A9G_o1 (dsDNA)
DNA 1: GCTCTGCTGGGTCAACGATGGTCAGCTAATCTGCTAGCGATTGACAGCGTAGAATGAAGG
DNA 2: CCTTCATTCTACGCTGTCAATCGCTAGCAGATTAGCTGACCATCGTTGACCCAGCAGAGC
B16: NRC3_wobSeed45_DR1_T11C_o1 (dsDNA)
DNA 1: GCTGTCAAAGCTCAAAGGTAACGTAAGTATCCACACGCGATTGACAGCGTAGAATGAAGG
DNA 2: CCTTCATTCTACGCTGTCAATCGCGTGTGGATACTTACGTTACCTTTGAGCTTTGACAGC
B17: NRC3_wobSeed82_DR3_G10C_o1 (dsDNA)
DNA 1: GCATCGAAACGTCGACGAGGTGAGTATACACCGTTTGCGATTGACAGCGTAGAATGAAGG
DNA 2: CCTTCATTCTACGCTGTCAATCGCAAACGGTGTATACTCACCTCGTCGACGTTTCGATGC
B18: NRC3_wobSeed34_DR1_T19A_o1 (dsDNA)
DNA 1: GCATCGAAAGGTCGAAGGAGAGTATACCCACCCGAAGCGATTGACAGCGTAGAATGAAGG
DNA 2: CCTTCATTCTACGCTGTCAATCGCTTCGGGTGGGTATACTCTCCTTCGACCTTTCGATGC
B19: NRC3_wobSeed34_DR1_G17A_o1 (dsDNA)
DNA 1: B18 DNA 1 with G17A, A19T
DNA 2: B18 DNA 2 with T42A, C44T
B20: NRC3_wobSeed101_DR4_C13A_o1 (dsDNA)
DNA 1: GCCCTTACGGGTAACTCCAGGTTATAGCATCGGAGTGCGATTGACAGCGTAGAATGAAGG
DNA 2: CCTTCATTCTACGCTGTCAATCGCACTCCGATGCTATAACCTGGAGTTACCCGTAAGGGC
B21: NRC3_wobSeed93_DR3_C13G_o1 (dsDNA)
DNA 1: GCAGTCAAAGTTGATCTAGGTAACGTAAGATATGCTGCGATTGACAGCGTAGAATGAAGG
DNA 2: CCTTCATTCTACGCTGTCAATCGCAGCATATCTTACGTTACCTAGATCAACTTTGACTGC
B22: NRC3_wobSeed39_DR1_G17A_o1 (dsDNA)
DNA 1: GCCGAACTAGGTCAAAAGACAGTGAAAGGCGACGTAGCGATTGACAGCGTAGAATGAAGG
DNA 2: CCTTCATTCTACGCTGTCAATCGCTACGTCGCCTTTCACTGTCTTTTGACCTAGTTCGGC
B23: NRC3_wobSeed16_DR0_G11T_o1 (dsDNA)
DNA 1: GCCAGCCTAGTTCAGGGCCAGTATAGGAGGAACGTTGCGATTGACAGCGTAGAATGAAGG
DNA 2: CCTTCATTCTACGCTGTCAATCGCAACGTTCCTCCTATACTGGCCCTGAACTAGGCTGGC
B24: NRC3_wobSeed62_DR2_T16G_o1 (dsDNA)
DNA 1: GCTCTGCTAGGTCAGGTGGTCAGCTAACGAGCTGCCGCGATTGACAGCGTAGAATGAAGG
DNA 2: CCTTCATTCTACGCTGTCAATCGCGGCAGCTCGTTAGCTGACCACCTGACCTAGCAGAGC
B25: NRC3_wobSeed36_DR1_A16C_o1 (dsDNA)
DNA 1: GCCCGACTGGGGCAACGGTTACCATACTCAGTACGAGCGATTGACAGCGTAGAATGAAGG
DNA 2: CCTTCATTCTACGCTGTCAATCGCTCGTACTGAGTATGGTAACCGTTGCCCCAGTCGGGC
B26: NRC3_wobSeed125_DR5_A14C_o1 (dsDNA)
DNA 1: GCCCTTACGGGTCCCTGACAGGTTATAGCATTTGGAGCGATTGACAGCGTAGAATGAAGG
DNA 2: CCTTCATTCTACGCTGTCAATCGCTCCAAATGCTATAACCTGTCAGGGACCCGTAAGGGC
B27: NRC3_wobSeed123_DR5_G21T_o1 (dsDNA)
DNA 1: GCCCTCGGAGGACAACAGGATGTCAGAGCTGCCAGAGCGATTGACAGCGTAGAATGAAGG
DNA 2: CCTTCATTCTACGCTGTCAATCGCTCTGGCAGCTCTGACATCCTGTTGTCCTCCGAGGGC
B28: NRC3_wobSeed63_DR2_G10A_o1 (dsDNA)
DNA 1: GCCGAACTAAGTCACCAGGACAGTGAAGAGGTTGGAGCGATTGACAGCGTAGAATGAAGG
DNA 2: CCTTCATTCTACGCTGTCAATCGCTCCAACCTCTTCACTGTCCTGGTGACTTAGTTCGGC
B29: NRC3_wobSeed5_DR0_A15G_o1 (dsDNA)
DNA 1: GCCCTTACGGGTCAGGGTTATAGCACGGGTGGTACGGCGATTGACAGCGTAGAATGAAGG
DNA 2: CCTTCATTCTACGCTGTCAATCGCCGTACCACCCGTGCTATAACCCTGACCCGTAAGGGC
B30: NRC3_wobSeed64_DR2_G17T_o1 (dsDNA)
DNA 1: GCTAGCCTAGGTCATTTGGCCAGTATAGTACGCATCGCGATTGACAGCGTAGAATGAAGG
DNA 2: CCTTCATTCTACGCTGTCAATCGCGATGCGTACTATACTGGCCAAATGACCTAGGCTAGC
B31: NRC3_wobSeed64_DR2_C21T_o1 (dsDNA)
DNA 1: B30 DNA 1 with T17G, C21T
DNA 2: B30 DNA 2 with G40A, A44C
B32: NRC3_wobSeed86_DR3_G15T_o1 (dsDNA)
DNA 1: GCGCTGCTAGGTCATGTTGGTCAGCTAACGGGTACGGCGATTGACAGCGTAGAATGAAGG
DNA 2: CCTTCATTCTACGCTGTCAATCGCCGTACCCGTTAGCTGACCAACATGACCTAGCAGCGC
B33: NRC3_wobSeed135_DR5_C13G_o1 (dsDNA)
DNA 1: GCCGAACTAGGTGATTGACAGGACAGTGAATAGTAAGCGATTGACAGCGTAGAATGAAGG
DNA 2: CCTTCATTCTACGCTGTCAATCGCTTACTATTCACTGTCCTGTCAATCACCTAGTTCGGC

biological target: RARg:RXRa (Homo sapiens, UniProt P13631;P19793 full;full); experiment: no ligand; PBM; 270 nM : 90 nM RXRa; PBS pH 7.4, 2% milk, 0.02% Triton X-100, 1 mM DTT, BSA, 0.4 mg/ml salmon testes DNA; details: tags: His kept;His cleaved; copies: 1;1; label: surface-attached array probe
Procedure, shortened: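 Antibodies against each partner of ligand-free nuclear receptor dimers (one per run) detected binding on custom Agilent 4×180K protein-binding microarrays after 1 h incubation. The double-stranded probes had 34-nt variable regions carrying direct-repeat seeds, single-nucleotide variants, half-site ablations and random human genomic background sequences. Binding z-scores, from regression-normalized fluorescence, use the random background probes as reference.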

Chain of RARg:RXRa (P13631 whole entry, chain 1 of 2): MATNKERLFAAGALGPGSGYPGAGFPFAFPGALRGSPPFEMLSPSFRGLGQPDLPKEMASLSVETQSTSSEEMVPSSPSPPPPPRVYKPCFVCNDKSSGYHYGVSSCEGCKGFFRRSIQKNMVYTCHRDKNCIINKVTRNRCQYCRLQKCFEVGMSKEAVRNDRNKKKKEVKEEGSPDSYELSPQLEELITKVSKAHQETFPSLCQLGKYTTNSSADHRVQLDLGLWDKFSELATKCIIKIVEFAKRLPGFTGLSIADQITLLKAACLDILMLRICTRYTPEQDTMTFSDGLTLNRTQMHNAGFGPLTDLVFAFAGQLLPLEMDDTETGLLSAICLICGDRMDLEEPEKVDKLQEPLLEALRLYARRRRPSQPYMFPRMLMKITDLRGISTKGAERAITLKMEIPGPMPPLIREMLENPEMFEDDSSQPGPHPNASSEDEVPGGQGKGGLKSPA
Chain of RARg:RXRa (P19793 whole entry, chain 2 of 2): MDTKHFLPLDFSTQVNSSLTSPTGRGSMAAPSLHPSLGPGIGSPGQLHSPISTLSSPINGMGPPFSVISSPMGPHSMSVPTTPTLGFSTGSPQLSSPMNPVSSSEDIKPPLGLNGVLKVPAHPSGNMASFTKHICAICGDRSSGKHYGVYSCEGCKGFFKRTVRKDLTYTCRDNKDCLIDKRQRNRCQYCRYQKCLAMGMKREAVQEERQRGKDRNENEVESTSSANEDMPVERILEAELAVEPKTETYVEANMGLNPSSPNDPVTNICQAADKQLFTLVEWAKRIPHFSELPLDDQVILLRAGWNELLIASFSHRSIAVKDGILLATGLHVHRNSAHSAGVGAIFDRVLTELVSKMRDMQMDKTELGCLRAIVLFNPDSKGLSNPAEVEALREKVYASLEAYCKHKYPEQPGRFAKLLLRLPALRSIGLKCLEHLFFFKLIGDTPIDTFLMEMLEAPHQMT

Binder | binding signal
B1 | 3.36 PBM z-score against 500 random probes
B2 | 3.58 PBM z-score against 500 random probes
B3 | 3.49 PBM z-score against 500 random probes
B4 | 3.2 PBM z-score against 500 random probes
B5 | 0.42 PBM z-score against 500 random probes
B6 | 0.32 PBM z-score against 500 random probes
B7 | 3.16 PBM z-score against 500 random probes
B8 | 0.4 PBM z-score against 500 random probes
B9 | 3 PBM z-score against 500 random probes
B10 | 3.61 PBM z-score against 500 random probes
B11 | 3.31 PBM z-score against 500 random probes
B12 | 0.43 PBM z-score against 500 random probes
B13 | 3.1 PBM z-score against 500 random probes
B14 | 0.45 PBM z-score against 500 random probes
B15 | 3.45 PBM z-score against 500 random probes
B16 | 0.5 PBM z-score against 500 random probes
B17 | 0.46 PBM z-score against 500 random probes

Binder | binding signal
B18 | 3.65 PBM z-score against 500 random probes
B19 | 3.26 PBM z-score against 500 random probes
B20 | 0.35 PBM z-score against 500 random probes
B21 | 0.37 PBM z-score against 500 random probes
B22 | 3.41 PBM z-score against 500 random probes
B23 | 0.39 PBM z-score against 500 random probes
B24 | 3.05 PBM z-score against 500 random probes
B25 | 0.38 PBM z-score against 500 random probes
B26 | 0.36 PBM z-score against 500 random probes
B27 | 0.5 PBM z-score against 500 random probes
B28 | 0.3 PBM z-score against 500 random probes
B29 | 3.72 PBM z-score against 500 random probes
B30 | 3.69 PBM z-score against 500 random probes
B31 | 3.53 PBM z-score against 500 random probes
B32 | 3.75 PBM z-score against 500 random probes
B33 | 0.33 PBM z-score against 500 random probes
